The target of this assay is calcitonin receptor (bovine (endogenous in bovine articular cartilage explants)).

salmon calcitonin (peptide): the share of CTR-positive cells (immunohistochemistry) in the deep layer of T3-induced explants after four days of co-stimulation with 1 nM and 10 nM sCT is under 43%.

Values taken from paper PMC3386925.
